Key:
Experiment in all cases: FRET or BRET
Design in all cases: unit not given beside the values
[1] = biological target: T1, GST-LXRα LBD (human)
T1 sequence (Q13133 whole entry, looked up): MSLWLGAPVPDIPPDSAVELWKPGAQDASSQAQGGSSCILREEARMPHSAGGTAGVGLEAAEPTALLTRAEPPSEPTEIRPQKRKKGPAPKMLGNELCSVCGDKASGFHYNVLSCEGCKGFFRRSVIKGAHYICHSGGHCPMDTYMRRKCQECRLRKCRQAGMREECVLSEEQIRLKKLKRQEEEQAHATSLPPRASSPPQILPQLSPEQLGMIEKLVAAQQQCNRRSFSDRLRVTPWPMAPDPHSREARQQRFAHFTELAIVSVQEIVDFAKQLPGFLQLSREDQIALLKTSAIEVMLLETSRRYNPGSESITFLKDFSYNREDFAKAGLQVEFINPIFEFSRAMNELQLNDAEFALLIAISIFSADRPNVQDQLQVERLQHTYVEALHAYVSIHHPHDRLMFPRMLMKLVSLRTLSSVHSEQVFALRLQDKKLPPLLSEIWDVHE

[2] = biological target: T2, GST-PXR LBD protein (human)
T2 sequence (O75469 whole entry, species assumed, looked up): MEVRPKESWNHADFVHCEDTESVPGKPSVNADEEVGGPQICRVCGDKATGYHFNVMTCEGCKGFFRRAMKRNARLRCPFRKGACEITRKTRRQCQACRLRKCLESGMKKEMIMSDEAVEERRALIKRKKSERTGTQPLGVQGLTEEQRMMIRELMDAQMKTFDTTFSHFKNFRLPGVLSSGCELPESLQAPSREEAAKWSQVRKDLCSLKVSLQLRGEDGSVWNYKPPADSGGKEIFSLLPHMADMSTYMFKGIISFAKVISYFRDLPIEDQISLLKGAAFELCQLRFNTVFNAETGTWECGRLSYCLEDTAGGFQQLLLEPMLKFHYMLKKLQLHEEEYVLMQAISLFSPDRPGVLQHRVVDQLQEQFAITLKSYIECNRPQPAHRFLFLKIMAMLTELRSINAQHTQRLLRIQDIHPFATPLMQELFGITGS

[3] = biological target: T3, GST-LXRβ LBD (human)
T3 sequence (P55055 whole entry, looked up): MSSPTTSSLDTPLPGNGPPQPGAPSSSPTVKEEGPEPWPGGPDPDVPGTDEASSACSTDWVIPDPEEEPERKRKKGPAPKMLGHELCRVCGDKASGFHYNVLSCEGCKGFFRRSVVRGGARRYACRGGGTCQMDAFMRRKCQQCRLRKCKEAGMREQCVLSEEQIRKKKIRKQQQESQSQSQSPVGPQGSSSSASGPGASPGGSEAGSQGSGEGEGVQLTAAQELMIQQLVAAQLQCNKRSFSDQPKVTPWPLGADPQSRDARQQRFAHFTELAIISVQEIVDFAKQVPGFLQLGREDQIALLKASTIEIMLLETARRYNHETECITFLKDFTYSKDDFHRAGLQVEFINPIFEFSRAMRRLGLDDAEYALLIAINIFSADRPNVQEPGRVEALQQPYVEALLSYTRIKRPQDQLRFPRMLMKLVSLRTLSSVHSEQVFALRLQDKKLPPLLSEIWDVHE

An AUC of SRC-1 recruitment (TR-FRET) with SJPYT-299 [1] of 67.1, an AUC of SRC-1 recruitment (TR-FRET) with SJPYT-300 [1] of 80.2 and an AUC of SRC-1 recruitment (TR-FRET) with SJPYT-301 [1] of 95.1 were found for {FAM-(PEG)5}-CPSSHSSLTERHKILHRLLQEGSPS-NH2 [FAM-SRC1-B peptide] in this work. It also gave an AUC of SRC-1 recruitment (TR-FRET) with SJPYT-302 [1] of 108, an AUC of SRC-1 recruitment (TR-FRET) with SJPYT-303 [1] of 63.6 and an AUC of SRC-1 recruitment (TR-FRET) with SJPYT-304 [1] of 59.5. It also gave an AUC of SRC-1 recruitment (TR-FRET) with SJPYT-305 [1] of 33.4, an AUC of SRC-1 recruitment (TR-FRET) with SJPYT-315 [1] of 62.3 and an AUC of SRC-1 recruitment (TR-FRET) with SJPYT-316 [1] of 60.8. It also gave an AUC of SRC-1 recruitment (TR-FRET) with SJPYT-317 [1] of 27.2, an AUC of SRC-1 recruitment (TR-FRET) with T0901317 [1] of 122 and an AUC of SRC-1 recruitment (TR-FRET) with SJPYT-299 [2] of 102. The AUC of SRC-1 recruitment (TR-FRET) with SJPYT-300 [2] was 102, the AUC of SRC-1 recruitment (TR-FRET) with SJPYT-301 [2] was 129 and the AUC of SRC-1 recruitment (TR-FRET) with SJPYT-302 [2] was 102. It also gave an AUC of SRC-1 recruitment (TR-FRET) with SJPYT-303 [2] of 134, an AUC of SRC-1 recruitment (TR-FRET) with SJPYT-304 [2] of 113 and an AUC of SRC-1 recruitment (TR-FRET) with SJPYT-305 [2] of 161. The AUC of SRC-1 recruitment (TR-FRET) with SJPYT-315 [2] was 57.4, the AUC of SRC-1 recruitment (TR-FRET) with SJPYT-316 [2] was 38.7 and the AUC of SRC-1 recruitment (TR-FRET) with SJPYT-317 [2] was 39.5. For the same binder, the AUC of SRC-1 recruitment (TR-FRET) with SJPYT-318 [2] was 47.1, the AUC of SRC-1 recruitment (TR-FRET) with SJPYT-319 [2] was 23.6 and the AUC of SRC-1 recruitment (TR-FRET) with T0901317 [2] was 124. It also gave an AUC of SRC-1 recruitment (TR-FRET) with SJPYT-299 [3] of 133, an AUC of SRC-1 recruitment (TR-FRET) with SJPYT-300 [3] of 136 and an AUC of SRC-1 recruitment (TR-FRET) with SJPYT-301 [3] of 154. The AUC of SRC-1 recruitment (TR-FRET) with SJPYT-302 [3] was 149, the AUC of SRC-1 recruitment (TR-FRET) with SJPYT-303 [3] was 120 and the AUC of SRC-1 recruitment (TR-FRET) with SJPYT-304 [3] was 125. The AUC of SRC-1 recruitment (TR-FRET) with SJPYT-305 [3] was 76.1, the AUC of SRC-1 recruitment (TR-FRET) with SJPYT-315 [3] was 117 and the AUC of SRC-1 recruitment (TR-FRET) with SJPYT-316 [3] was 144. The AUC of SRC-1 recruitment (TR-FRET) with SJPYT-317 [3] was 71.3, the AUC of SRC-1 recruitment (TR-FRET) with SJPYT-318 [3] was 21.8 and the AUC of SRC-1 recruitment (TR-FRET) with SJPYT-319 [3] was 21.5. It also gave an AUC of SRC-1 recruitment (TR-FRET) with T0901317 [3] of 202.

Reference: publication PMC10872772
